Measured values reported in patent US9803013B2, “Biological materials and uses thereof” (BioInvent International AB, priority 2005, dated 2017).

Legend:
PBMC = PBMC cytokine release; assay type: cell-based, human; conditions: immobilized (air-dried or wet coated) or in solution
Procedure: (FIG. 23D) Antibody-induced PBMC cytokine release. PBMC cytokine release was measured by ELISA of cell culture supernatants for IL-1β, IL-2, IL-6, IL-8, IFN-γ and TNF-α following incubation of cells in plates coated with hyper cross-linked (air-dried “A” or wet coated “W”) BI-505, isotype control, or positive control Okt-3 antibody.
(FIG. 23E) Antibody-induced cytokine release in LPS-primed PBMC. PBMC were incubated with titrated LPS and concentrations yielding submaximal cellular release of IL-1β. (100 pg/ml), IL-6 (10 pg/ml), IL-8 (10 pg/ml), and TNF-α (10 pg/ml) were determined (arrows, left panel), and used in subsequent experiments assessing antibody (BI-505 or ctrl IgG) effects on cytokine release from LPS-primed PBMC (right panel). Treatment with 100 ng/ml LPS served as positive control for robust cytokine release.
Cytokine release and T cell proliferation are thought to be common causes of mild and severe adverse reactions to antibody therapy. In order to further investigate any undesirable effects of BI-505 on ICAM-1 expressing immune cells, we therefore assessed putative effects of BI-505 on peripheral blood mononuclear cell (PBMC) cytokine release and T cell proliferation. […]
For cell culture cytokine quantifications, cells were seeded in 96-well cell culture wet and air-dried coated plates at a density of 1×10^6 cells/mL and cultured with antibodies for 24 hr. […]

human target tumor cells = test: ADCC with human effector NK cells; assay type: cell-based
Procedure: NK cells were isolated from purified PBMCs using positive or negative NK cell-isolation kits (Miltenyi Biotec). Target cells were harvested and incubated in medium with or without the respective antibodies (2 μg/mL) for 60 min on ice before. NK cells were washed, diluted in ADCC medium and dispensed together with the respective antibody-coated target cells at varying effector/target cell ratios. All experiments were performed in triplicate. After incubation, TO-PRO-3 dye and counting beads (Invitrogen) were added and cells were analyzed for membrane permeabilization using flow cytometry.
Buffy coats from human donors (ordered through Blodcentralen, Lund) were used to isolate peripheral blood mononuclear cells (PBMCs), and subsequently natural killer (NK) cells. Briefly, peripheral blood components were separated using Ficoll-Paque PLUS (Amersham Biosciences, Sweden) in Leucosep tubes (Greiner Bio-One). […] The purity of the obtained NK cell fractions was >75% as determined by flow cytometry after staining with α-CD56 antibodies (BD Biosciences). […] After incubation, TO-PRO-3 dye and counting beads (Invitrogen) were added and cells were analyzed for membrane permeabilization using flow cytometry.

CL-01 B lymphoma cells = test: Mitochondrial membrane depolarisation assay (JC-1); assay type: cell-based, human; conditions: CL-01, JC-1 staining, 2 μg/ml IgG cross-linked, 6 h
Procedure: FIG. 4A. […] Cells were incubated at 37° C. for 6 h and the effect of the antibody incubation was determined by two independent apoptosis assays. Cells were stained either by AV/PI (upper panel), similarly as described above, or by incubation with 5 μg/ml of the mitochondrial membrane depolarisation reagent JC-1 for 30 min at RT (lower panel). Induction of apoptosis is detectable by a decrease in the red (y-axis)/green (x-axis) fluorescence intensity ratio. (FIG. 4B) Histology section showing representative binding of B11 antibody to B lymphoma tissue. Cryo-preserved tissue obtained from a patient with Anaplastic Large Cell B Lymphoma was stained with B11 or FITC-8 (control) scFv antibody. Antibody binding was detected with DAB (brown colour). […] IgG B11 binding to the different cell populations was recorded in the FL4 channel.
Mitochondrial membrane depolarisation was analysed as previously described (Kim et al., Mol. Biol. Cell (2004) 15:420-434). […] Cells were washed twice in ice-cold PBS and resuspended in […] PBS and analysed on a FACS Aria (BD Biosciences). The green and red fluorescence was collected through 494/518 nm (FL-1) and 595/615 nm (FL-2) bandpass filters, respectively. […]

B1: B11: fully human IgG1 antibody specific for ICAM-1; VH and VL sequences of FIG. 10 (SEQ ID NOs. 6 and 8) (antibody, listed as Homo sapiens, V domains shown)
VH: EVQLLESGGGLVQPGGSLRLSCAASGFTFSNAWMSWVRQAPGKGLEWVAFIWYDGSNKYYADSVKGRFTISRDNSKNTLYLQMNSLRAEDTAVYYCARYSGWYFDYWGQGTLVTVSS
VL: QSVLTQPPSASGTPGQRVTISCTGSSSNIGAGYDVHWYQQLPGTAPKLLIYDNNNRPSGVPDRFSGSKSGTSASLAISGLRSEDEADYYCQSYDSSLSAWLFGGGTKLTVLG
- PBMC cytokine release (PBMC): did not, however, induce PBMC cytokine release
- ADCC (human target tumor cells): conferred cytotoxicity in an Fc-dependent manner
- mitochondrial membrane depolarisation (CL-01 B lymphoma cells): induce mitochondrial membrane depolarisation
